Values of other authors as cited in article PMC9406205.

How the values were obtained:
[1] = molecular target: PRK (Chlamydomonas reinhardtii) (UniProt P19824); assay: surface plasmon resonance
[2] = molecular target: GAPDH (Chlamydomonas reinhardtii) (UniProt P50362); assay: surface plasmon resonance

UniProt P19824, sequence (P19824 32-375): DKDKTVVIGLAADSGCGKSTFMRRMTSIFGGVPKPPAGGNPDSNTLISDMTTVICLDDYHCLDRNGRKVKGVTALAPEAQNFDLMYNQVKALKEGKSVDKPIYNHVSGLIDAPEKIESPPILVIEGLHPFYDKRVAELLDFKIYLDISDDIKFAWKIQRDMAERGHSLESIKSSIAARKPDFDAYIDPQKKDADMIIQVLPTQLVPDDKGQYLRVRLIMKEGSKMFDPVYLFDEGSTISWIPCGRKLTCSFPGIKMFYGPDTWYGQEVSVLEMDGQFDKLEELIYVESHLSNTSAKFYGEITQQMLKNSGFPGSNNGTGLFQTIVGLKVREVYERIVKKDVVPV

Substance | Kd [1] [nM] | Kd [2] [nM]
GAPDH-CP12 subcomplex (from UniProt P50362) | 60 | –
CP12 (from UniProt A6Q0K5) | – | 0.44
